# Results published in patent US20230265151A1, “GIP/GLP1 CO-AGONIST COMPOUNDS” (priority 2020, published 2023).
# Residue numbers refer to the chain shown, from its start. *1 amine or outer side, *2 acyl side, *3 side chain or, on linkers, in order; H or OH if unused. Where no end group is shown, it is not given here. Side-chain parts run from the residue outwards. [ ]: non-standard residue; d: D form. The star is where a group is joined. αMePhe(2-F) = C[C@](N)(Cc1ccccc1F)C(=O)O; γGlu = O=C(O)[C@H](CCC(=O)[*:2])N[*:1]; C14 diacid = O=C(O)CCCCCCCCCCCCC(=O)*; αMeY = C[C@](N)(Cc1ccc(O)cc1)C(=O)O; αMeF = C[C@](N)(Cc1ccccc1)C(=O)O; αMeL = CC(C)C[C@](C)(N)C(=O)O; Orn = NCCC[C@H](N)C(=O)O; AEEA = NCCOCCOCC(=O)O; Aib = CC(C)(N)C(=O)O
# T1: human GIP receptor (human, UniProt P48546 22-466)
# T1 sequence (looked up): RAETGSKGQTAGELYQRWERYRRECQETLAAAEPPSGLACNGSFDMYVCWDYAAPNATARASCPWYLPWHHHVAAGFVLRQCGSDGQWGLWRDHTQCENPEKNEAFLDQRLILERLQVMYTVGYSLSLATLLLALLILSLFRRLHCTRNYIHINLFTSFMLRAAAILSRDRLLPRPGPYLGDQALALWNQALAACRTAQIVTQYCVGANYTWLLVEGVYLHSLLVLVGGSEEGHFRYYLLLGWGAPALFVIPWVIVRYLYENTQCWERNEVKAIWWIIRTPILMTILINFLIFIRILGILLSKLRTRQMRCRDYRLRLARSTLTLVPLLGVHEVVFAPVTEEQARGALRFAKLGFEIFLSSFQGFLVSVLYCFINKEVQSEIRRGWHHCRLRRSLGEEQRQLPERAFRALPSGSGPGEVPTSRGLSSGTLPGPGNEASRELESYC
# B1: Example 108 (peptide)
# peptide: Y[Aib]EGT[αMePhe(2-F)]TSDK([AEEA-AEEA-γGlu-C14 diacid])SI[αMeL]LD[Orn]IAQ[Aib]EFI[dE][αMeY]LIEGGK([AEEA-AEEA-γGlu-C14 diacid])SSGAPPPS-NH2
# modifications: N-terminus assumed
# SMILES: CC[C@H](C)[C@H](NC(=O)[C@H](CCCN)NC(=O)[C@H](CC(=O)O)NC(=O)[C@H](CC(C)C)NC(=O)[C@](C)(CC(C)C)NC(=O)[C@@H](NC(=O)[C@H](CO)NC(=O)[C@H](CCCCNC(=O)COCCOCCNC(=O)COCCOCCNC(=O)CC[C@H](NC(=O)CCCCCCCCCCCCC(=O)O)C(=O)O)NC(=O)[C@H](CC(=O)O)NC(=O)[C@H](CO)NC(=O)[C@@H](NC(=O)[C@](C)(Cc1ccccc1F)NC(=O)[C@@H](NC(=O)CNC(=O)[C@H](CCC(=O)O)NC(=O)C(C)(C)NC(=O)[C@@H](N)Cc1ccc(O)cc1)[C@@H](C)O)[C@@H](C)O)[C@@H](C)CC)C(=O)N[C@@H](C)C(=O)N[C@@H](CCC(N)=O)C(=O)NC(C)(C)C(=O)N[C@@H](CCC(=O)O)C(=O)N[C@@H](Cc1ccccc1)C(=O)N[C@H](C(=O)N[C@H](CCC(=O)O)C(=O)N[C@@](C)(Cc1ccc(O)cc1)C(=O)N[C@@H](CC(C)C)C(=O)N[C@H](C(=O)N[C@@H](CCC(=O)O)C(=O)NCC(=O)NCC(=O)N[C@@H](CCCCNC(=O)COCCOCCNC(=O)COCCOCCNC(=O)CC[C@H](NC(=O)CCCCCCCCCCCCC(=O)O)C(=O)O)C(=O)N[C@@H](CO)C(=O)N[C@@H](CO)C(=O)NCC(=O)N[C@@H](C)C(=O)N1CCC[C@H]1C(=O)N1CCC[C@H]1C(=O)N1CCC[C@H]1C(=O)N[C@@H](CO)C(N)=O)[C@@H](C)CC)[C@@H](C)CC
# B2: Example 109 (peptide)
# peptide: YXEGTXTSDKSIXLDXIAQXKXIXXLIEGGPSSGAPPPS
# modifications: Aib2, αMeF(2F)6, αMeL13, Orn16, Aib20, αMeF22, D-Glu24, αMeY25, K10 and K21: K(AEEA2-(γ-Glu)-CO-(CH2)12-CO2H), C-terminal NH2
# B3: Example 97 (peptide)
# peptide: YXEGTXTSDXSIXLDXKAQXEFIXXLIEGGKSSGAPPPS
# modifications: Aib2, αMeF(2F)6, ChG10, αMeL13, Orn16, Aib20, D-Glu24, αMeY25, K17 and K31: K(AEEA2-(γ-Glu)-CO-(CH2)12-CO2H), C-terminal NH2
# B4: Example 105 (peptide)
# peptide: B2 peptide with X22F
# modifications: Aib2, αMeF(2F)6, αMeL13, Orn16, Aib20, D-Glu24, αMeY25, K10 and K21: K(AEEA2-(γ-Glu)-CO-(CH2)12-CO2H), C-terminal NH2
# B5: Example 101 (peptide)
# peptide: B3 peptide with X16G
# modifications: Aib2, αMeF(2F)6, 4Pal10, αMeL13, Aib20, D-Glu24, αMeY25, K17 and K31: K(AEEA2-(γ-Glu)-CO-(CH2)12-CO2H), C-terminal NH2
# B6: Example 103 (peptide)
# peptide: B3 peptide with E21G
# modifications: Aib2, αMeF(2F)6, 4Pal10, αMeL13, Orn16, Aib20, D-Glu24, αMeY25, K17 and K31: K(AEEA2-(γ-Glu)-CO-(CH2)12-CO2H), C-terminal NH2
# B7: Example 98 (peptide)
# peptide: B3 peptide
# modifications: Aib2, αMeF(2F)6, ChA10, αMeL13, Orn16, Aib20, D-Glu24, αMeY25, K17 and K31: K(AEEA2-(γ-Glu)-CO-(CH2)12-CO2H), C-terminal NH2
# B8: Example 104 (peptide)
# peptide: B3 peptide with X24G
# modifications: Aib2, αMeF(2F)6, 4Pal10, αMeL13, Orn16, Aib20, αMeY25, K17 and K31: K(AEEA2-(γ-Glu)-CO-(CH2)12-CO2H), C-terminal NH2
# B9: Example 99 (peptide)
# peptide: B3 peptide with F22X
# modifications: Aib2, αMeF(2F)6, 4Pal10, αMeL13, Orn16, Aib20, 2Nal22, D-Glu24, αMeY25, K17 and K31: K(AEEA2-(γ-Glu)-CO-(CH2)12-CO2H), C-terminal NH2
# B10: Example 111 (peptide)
# peptide: Y[Aib]EGT[αMePhe(2-F)]TSDK([AEEA-AEEA-γGlu-C14 diacid])SI[αMeL]LD[Orn]IAQ[Aib]E[αMeF]I[dE][αMeY]LIK([AEEA-AEEA-γGlu-C14 diacid])GGPSSGAPPPS-NH2
# modifications: N-terminus assumed
# SMILES: CC[C@H](C)[C@H](NC(=O)[C@H](CCCN)NC(=O)[C@H](CC(=O)O)NC(=O)[C@H](CC(C)C)NC(=O)[C@](C)(CC(C)C)NC(=O)[C@@H](NC(=O)[C@H](CO)NC(=O)[C@H](CCCCNC(=O)COCCOCCNC(=O)COCCOCCNC(=O)CC[C@H](NC(=O)CCCCCCCCCCCCC(=O)O)C(=O)O)NC(=O)[C@H](CC(=O)O)NC(=O)[C@H](CO)NC(=O)[C@@H](NC(=O)[C@](C)(Cc1ccccc1F)NC(=O)[C@@H](NC(=O)CNC(=O)[C@H](CCC(=O)O)NC(=O)C(C)(C)NC(=O)[C@@H](N)Cc1ccc(O)cc1)[C@@H](C)O)[C@@H](C)O)[C@@H](C)CC)C(=O)N[C@@H](C)C(=O)N[C@@H](CCC(N)=O)C(=O)NC(C)(C)C(=O)N[C@@H](CCC(=O)O)C(=O)N[C@@](C)(Cc1ccccc1)C(=O)N[C@H](C(=O)N[C@H](CCC(=O)O)C(=O)N[C@@](C)(Cc1ccc(O)cc1)C(=O)N[C@@H](CC(C)C)C(=O)N[C@H](C(=O)N[C@@H](CCCCNC(=O)COCCOCCNC(=O)COCCOCCNC(=O)CC[C@H](NC(=O)CCCCCCCCCCCCC(=O)O)C(=O)O)C(=O)NCC(=O)NCC(=O)N1CCC[C@H]1C(=O)N[C@@H](CO)C(=O)N[C@@H](CO)C(=O)NCC(=O)N[C@@H](C)C(=O)N1CCC[C@H]1C(=O)N1CCC[C@H]1C(=O)N1CCC[C@H]1C(=O)N[C@@H](CO)C(N)=O)[C@@H](C)CC)[C@@H](C)CC
# B11: Example 107 (peptide)
# peptide: Y[Aib]EGT[αMePhe(2-F)]TSDK([AEEA-AEEA-γGlu-C14 diacid])SI[αMeL]LD[Orn]IAQ[Aib]EFI[dE][αMeY]LIK([AEEA-AEEA-γGlu-C14 diacid])GGPSSGAPPPS-NH2
# modifications: N-terminus assumed
# SMILES: CC[C@H](C)[C@H](NC(=O)[C@H](CCCN)NC(=O)[C@H](CC(=O)O)NC(=O)[C@H](CC(C)C)NC(=O)[C@](C)(CC(C)C)NC(=O)[C@@H](NC(=O)[C@H](CO)NC(=O)[C@H](CCCCNC(=O)COCCOCCNC(=O)COCCOCCNC(=O)CC[C@H](NC(=O)CCCCCCCCCCCCC(=O)O)C(=O)O)NC(=O)[C@H](CC(=O)O)NC(=O)[C@H](CO)NC(=O)[C@@H](NC(=O)[C@](C)(Cc1ccccc1F)NC(=O)[C@@H](NC(=O)CNC(=O)[C@H](CCC(=O)O)NC(=O)C(C)(C)NC(=O)[C@@H](N)Cc1ccc(O)cc1)[C@@H](C)O)[C@@H](C)O)[C@@H](C)CC)C(=O)N[C@@H](C)C(=O)N[C@@H](CCC(N)=O)C(=O)NC(C)(C)C(=O)N[C@@H](CCC(=O)O)C(=O)N[C@@H](Cc1ccccc1)C(=O)N[C@H](C(=O)N[C@H](CCC(=O)O)C(=O)N[C@@](C)(Cc1ccc(O)cc1)C(=O)N[C@@H](CC(C)C)C(=O)N[C@H](C(=O)N[C@@H](CCCCNC(=O)COCCOCCNC(=O)COCCOCCNC(=O)CC[C@H](NC(=O)CCCCCCCCCCCCC(=O)O)C(=O)O)C(=O)NCC(=O)NCC(=O)N1CCC[C@H]1C(=O)N[C@@H](CO)C(=O)N[C@@H](CO)C(=O)NCC(=O)N[C@@H](C)C(=O)N1CCC[C@H]1C(=O)N1CCC[C@H]1C(=O)N1CCC[C@H]1C(=O)N[C@@H](CO)C(N)=O)[C@@H](C)CC)[C@@H](C)CC
# Key:
# Assay in all cases: cell-based or functional assay
# human GIP receptor = biological target: T1, human GIP receptor
# human glucagon receptor = human glucagon receptor (human, UniProt P47871 26-477)
# human GLP-1 receptor = human GLP-1 receptor (human, UniProt P43220 24-463)
Binder,"EC50, cAMP (human GIP receptor) [nM]","Emax, cAMP (human GIP receptor) [%]","EC50, cAMP (human glucagon receptor) [nM]","EC50, cAMP (human GLP-1 receptor) [nM]","Emax, cAMP (human GLP-1 receptor) [%]"
B1,0.0249,85.2,> 9950,0.701,97.6
B2,0.0236,84.8,> 9950,0.846,
B3,0.0276,,> 9950,0.683,
B4,0.0366,,> 9950,0.52,
B5,0.0297,92.1,> 9950,2.94,
B6,0.0305,92.8,> 9950,2.1,
B7,0.0148,,> 9950,0.227,
B8,0.0361,94.9,> 9950,0.417,
B9,0.0235,,> 9950,0.349,
B10,0.0202,76.1,> 9950,2.28,121
B11,0.0473,94.3,> 9950,1.01,93.4
Y[Aib]EGT[αMePhe(2-F)]TSDK([AEEA-AEEA-γGlu-C14 diacid])SI[αMeL]LD[Orn]IAQ[Aib]E[αMeF]IK([AEEA-AEEA-γGlu-C14 diacid])[αMeY]LIEGGPSSGAPPPS-NH2 [Example 110],0.0417,,> 9950,1.43,98.8
Y[Aib]EGT[αMePhe(2-F)]TSDK([AEEA-AEEA-γGlu-C14 diacid])SI[αMeL]LD[Orn]IAQ[Aib]EFIK([AEEA-AEEA-γGlu-C14 diacid])[αMeY]LIEGGPSSGAPPPS-NH2 [Example 106],0.0385,98.7,> 9950,0.296,
